Source: patent US20220073599A1 (Hoffmann-La Roche, published 2022)

Columns and labels:
Rabbit ANG2 = target: T1, Rabbit ANG2 (rabbit, UniProt G1T9B3 281-496); experiment: SPR crossreactivity set-up, Fab captured by anti-Fab antibody, Ang2-RBD injected, 25 C
T1 construct: domain: RBD; also called rabbit Ang2-RBD
T1 sequence: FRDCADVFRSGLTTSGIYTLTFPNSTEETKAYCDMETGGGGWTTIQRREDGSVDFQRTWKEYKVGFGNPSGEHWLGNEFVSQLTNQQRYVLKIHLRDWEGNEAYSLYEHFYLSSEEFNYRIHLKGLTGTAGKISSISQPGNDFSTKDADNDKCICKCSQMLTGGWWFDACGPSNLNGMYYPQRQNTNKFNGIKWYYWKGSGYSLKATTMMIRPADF
Method: An anti-Fab capturing antibody (GE Healthcare 28958325) was immobilized to a Series S Sensor Chip C1 (GE Healthcare BR100535) using standard amine coupling chemistry resulting in a surface density of approximately 800 resonance units (RU). As running and dilution buffer, HBS-P+ (10 mM HEPES, 150 mM NaCl pH 7.4, 0.05% Surfactant P20) was used, the temperature of measurement was 25° C. The tested antibody was captured by injecting a 50 nM solution for 60 sec at a flow of 5 μl/min. Association was measured by injection of Ang2-RBD from the indicated species in various concentrations in solution for 180 sec at a flow of 30 μl/min (0.07 nM-50 nM, 1:3 dilution). The dissociation phase was monitored for up to 600 sec and triggered by switching from the sample solution to running buffer at a flow rate of 30 μl/min. The surface was regenerated by injection of 10 mM Glycine pH 2.1 for 60 s at a flow rate of 30 μl/min. Bulk refractive index differences were corrected by subtracting blank injections and by subtracting the response obtained from the reference flow cell without captured antibody. Curve fitting was performed using the 1:1 Langmuir binding model within the Biacore® evaluation software.
Crossreactivity to VEGF-A and ANG2 from other species was assessed as described above in “Materials & general methods” section.

human VEGFA-121-His = target: T2, human VEGFA-121-His (human, UniProt P15692 181-395); experiment: SPR, VEGF-A121-His captured by anti-His antibody, Fab injected, single cycle kinetics; marked outside of Biacore specification
T2 construct: Prepared in-house; not shown: His tag
T2 sequence: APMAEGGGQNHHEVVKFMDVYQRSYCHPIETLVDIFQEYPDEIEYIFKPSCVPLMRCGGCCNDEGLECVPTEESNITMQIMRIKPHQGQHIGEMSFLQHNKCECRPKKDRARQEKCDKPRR
Method: An anti-His capturing antibody (GE Healthcare 28995056) was immobilized to a Series S Sensor Chip C1 (GE Healthcare BR100535) using standard amine coupling chemistry resulting in a surface density of approximately 600 resonance units (RU). As running and dilution buffer, HBS-P+ (10 mM HEPES, 150 mM NaCl pH 7.4, 0.05% Surfactant P20) was used. […] A dilution series of the tested antibody (3.7-300 nM, 1:3 dilution) was successively injected for 60 s each, dissociation was monitored for 3600 s at a flow rate of 30 μl/min (single cycle kinetics). The surface was regenerated by injecting 10 mM Glycine pH 1.5 for 60 s at a flow of 5 μl/min. […] Curve fitting was performed using the 1:1 Langmuir binding model within the Biacore® evaluation software.

human Ang2-RBD = target: T3, human Ang2-RBD (human, UniProt O15123 275-496, limits assumed); experiment: SPR, Fab captured by anti-Fab antibody, Ang2-RBD injected, 25 C
T3 construct: also called Human ANG2 (SPR); Angiopoietin 2-RBD
T3 sequence: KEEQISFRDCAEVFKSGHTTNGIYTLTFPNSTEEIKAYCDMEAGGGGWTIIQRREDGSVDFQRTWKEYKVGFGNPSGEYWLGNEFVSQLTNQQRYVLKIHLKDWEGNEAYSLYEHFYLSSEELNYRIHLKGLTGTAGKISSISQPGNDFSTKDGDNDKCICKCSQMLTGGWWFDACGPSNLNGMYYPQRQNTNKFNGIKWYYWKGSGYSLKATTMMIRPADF
Method: An anti-Fab capturing antibody (GE Healthcare 28958325) was immobilized to a Series S Sensor Chip C1 (GE Healthcare BR100535) using standard amine coupling chemistry resulting in a surface density of approximately 800 resonance units (RU). As running and dilution buffer, HBS-P+ (10 mM HEPES, 150 mM NaCl pH 7.4, 0.05% Surfactant P20) was used, the temperature of measurement was 25° C. The tested antibody was captured by injecting a 50 nM solution for 60 sec at a flow of 5 μl/min. Association was measured by injection of human Ang2-RBD in various concentrations in solution for 180 sec at a flow of 30 μl/min (0.07 nM-50 nM, 1:3 dilution). The dissociation phase was monitored for up to 900 sec and triggered by switching from the sample solution to running buffer at a flow rate of 30 μl/min. The surface was regenerated by injection of 10 mM Glycine pH 2.1 for 60 s at a flow rate of 30 μl/min. Bulk refractive index differences were corrected by subtracting blank injections and by subtracting the response obtained from the reference flow cell without captured tested antibody. Curve fitting was performed using the 1:1 Langmuir binding model within the Biacore® evaluation software.

B1: bispecific anti-VEGF-A/anti-ANG2 Fab fragment P1AD9820 (Fab, V domains shown)
VH: SEHLVESGGGLVKPGGSLRLSCATADFFEYDDMSWVRQAPGKGLEWVGSISPKGDHKYLNTKFIGRFTISRDDSKNTLYLQMNSLRAEDTAVYYCARDVGFFDWWGQGTLVTVSS
VL: AIYMHQEPSSLSASVGDRVTITCHGSYWLNSEVAWYQQKPGKAPKLLIFDGDFKVYEVPSRFSGSGSHEDYTLTISSLQPEDFATYYCQQYRYHPYTFGHGTKVEIKR
notes: Bispecific Fab with two paratopes in one VH/VL pair; also called P1AD9820 Fab
- Kd (Rabbit ANG2): 5 pM
- koff (Rabbit ANG2): 5.33e-05 s⁻¹
- kon (Rabbit ANG2): 9.91e+06 M⁻¹ s⁻¹
- t1/2 (Rabbit ANG2): 3.62 h

B2: bispecific anti-VEGF-A/anti-ANG2 Fab fragment P1AA8906 (Fab, V domains shown)
VH: DFQLVESGGGLVKPGGSLRLSCAASYEFEYDDMSWVRQAPGKGLEWVGSISPKGGSTYYNTKFIGRFTISRDNSKNTLYLQMNSLRAEDTAVYYCARDVGFFDMWGQGTLVTVSS
VL: AIYMHQEPSSLSASVGDRVTITCHGSYWLSNYLAWYQQKPGKAPKLLIFDARWLVHGVPSRFSGSGSHEDYTLTISSLQPEDFATYYCQQYRYHPYTFGHGTKVEIKR
notes: Bispecific Fab with two paratopes in one VH/VL pair (DutaFab); CH1 and Ckappa
- Kd (human VEGFA-121-His): 3 pM
- koff (human VEGFA-121-His): 4.53e-06 s⁻¹
- t1/2 (human Ang2-RBD): 24 s
